B1: Arabidopsis glutamyl-tRNA reductase (GluTR), residues 73-543 (enzyme, Arabidopsis thaliana, UniProt P42804 73-543, looked up)
chain: AASISALEQLKNSAADRYTKERSSIVVIGLSIHTAPVEMREKLAIPEAEWPRAIAELCGLNHIEEAAVLSTCNRMEIYVLALSQHRGVKEVTEWMSKTSGIPVSEICQHRFLLYNKDATQHIFEVSAGLDSLVLGEGQILAQVKQVVKVGQGVNGFGRNISGLFKHAITVGKRVRTETNIASGAVSVSSAAVELALMKLPQSSNVSARMCVIGAGKMGKLVIKHLMAKGCTKVVVVNRSEERVSAIREEMPGIEIIYRPLDEMLACASEADVVFTSTASETPLFLKEHVENLPQASPEVGGLRHFVDISVPRNVGSCVGEVETARVYNVDDLKEVVAANKEDRMRKAMEAQTIITEESTQFEAWRDSLETVPTIKKLRAYAERIRVAELEKCMSKMGDDINKKTTRAVDDLSRGIVNRFLHGPMQHLRCDGSDSRTLSETLENMHALNRMYGLEKDILEEKLKAMAEQQQK
notes: Expression vector pMAL-c5X; GluTR dimer fractions were collected from the gel filtration

Data set [1] concerns the molecule itself. The experiment in a line: crystal structure; FLU^TPR-GluTR-GBP ternary complex, space group C2, 3.2 Å, PDB 5CHE; sitting drop, 16 °C.
Data set [2] concerns the target B1. Kind of data set: SEC; purified GluTR, GBP and FLU^TPR mixed at molar ratio 2:3:3, 1 hour at 4 °C; HiLoad 16/60 Superdex 200 pg; 20 mM Tris-HCl pH 7.5, 200 mM NaCl, 4 mM dithiothreitol. The note with it: both partners purified. (Size exclusion chromatography separates by hydrodynamic size, large species first.)
The target of data set [3] is B1. The experiment in a line: ITC; MicroCal iTC200, 25 °C; 20 mM Tris-HCl pH 7.5, 150 mM NaCl; 20 injections of 2 μl of 0.5 mM protein into 200 μl of 50 μM protein; one-site binding model; apparent Kd. The following applies: both partners purified. In general terms: ITC needs no label: the signal is the heat of the interaction.

As for B1, the stoichiometry N (commonly a count of units in the complex or per binding partner) in data set [1] is 2.

B2: C-terminal tetratricopeptide-repeat domain of Arabidopsis FLUORESCENT (FLU), residues 195-316 (domain or fragment, Arabidopsis thaliana, UniProt Q940U6 195-316, looked up)
chain: IVEPKKQELISKLKTGKTFLRNQEPEKAYTEFKIALELAQSLKDPTEEKKAARGLGASLQRQGKYREAIQYHSMVLAISKRESEDSGITEAYGAIADCYTELGDLEKAGKFYDTYIARLETD
notes: FLUORESCENT (FLU), Arabidopsis thaliana, At3g14110, truncation of residues 195-316 (TPR domain); Expression vector pET-22b(+); also called FLU^TPR; the recombinant TPR domain of FLU
In the case of B2, the binding result in data set [1] and in data set [2] was “binds” each time.

B3: Arabidopsis GluTR-binding protein (GBP), residues 42-317 (natural protein, Arabidopsis thaliana, UniProt Q9LU39 42-317, looked up)
chain: CSVSTTLDTPATASTHKPFPAEVSRSIMELSSVGTLSTLTHDGWPLGVGVRFAVDKDGTPVLCLNRSVSPDKRSALHVQLEQCGLRTPQCTIQGSIGRPGDDTVLKRLSATWREKFGEEVKEDSLYVVAVDRVLQMEDFMEDGIWVASSDYKNASPDPLRDIAEDIVNQINANNMEDIFRFCNVYVDLDFVVSETKMIWMDRLGFDLRVWSPRGVYDVRIPFPMEVTDEKGAKSSFNGMSQLAWEVEKSYCPADFNKVKLLKQVVGSSHSHKGGGQ
notes: Expression vector pET-28a(+)
Turning to B3, the binding result in data set [1] was “binds”. Moreover, the Kd in data set [3] was found to be 41.3 ± 3.7 nM.

Values taken from paper PMC4726326, “The Arabidopsis glutamyl-tRNA reductase (GluTR) forms a ternary complex with FLU and GluTR-binding protein” (Scientific Reports, 2016).
